Data on 19 molecules can be found in patent US20240190987A1, “Engineered EpCam Binding Antibodies” (TigaTX, priority 2021, published 2024).

Assay [1] has as its target Ab0223. The assay is described as follows: BLI 1-pt +indinavir.
The target in assay [2] is cyEpCAM ECD Ag0066 (cyno). The assay can be described thus: SPR single-cycle.
Assay [3] has as its target T1, huEpCAM ECD Ag0065 (human) (UniProt P16422).
T1 sequence: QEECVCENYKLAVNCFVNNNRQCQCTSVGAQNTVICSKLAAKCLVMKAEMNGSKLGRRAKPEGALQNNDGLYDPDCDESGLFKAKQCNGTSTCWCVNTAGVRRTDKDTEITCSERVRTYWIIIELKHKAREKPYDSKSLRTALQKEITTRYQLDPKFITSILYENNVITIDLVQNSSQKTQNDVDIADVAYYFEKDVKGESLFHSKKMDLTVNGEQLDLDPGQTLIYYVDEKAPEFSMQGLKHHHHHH
The assay can be described thus: SPR single-cycle.

Assay [4] addresses cyEpCAM ECD Ag0066 (cyno). The assay can be described thus: SPR multi-cycle.
Assay [5] addresses T1, huEpCAM ECD Ag0065 (human). The assay can be described thus: SPR multi-cycle.

Ab0223, sequence (VH, as listed by the source limits assumed, form in doubt, chain 1 of 2): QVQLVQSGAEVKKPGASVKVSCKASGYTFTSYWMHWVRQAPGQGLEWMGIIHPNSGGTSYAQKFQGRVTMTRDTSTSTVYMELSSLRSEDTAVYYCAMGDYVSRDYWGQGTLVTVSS
Ab0223, sequence (VL, as listed by the source limits assumed, form in doubt, chain 2 of 2): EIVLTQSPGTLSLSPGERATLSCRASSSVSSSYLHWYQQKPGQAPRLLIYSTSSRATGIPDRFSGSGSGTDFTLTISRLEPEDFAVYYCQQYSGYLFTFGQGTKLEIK

B1: Ab0935 (antibody, V domains shown)
VH: EVQLVESGGGLVQPGGSLRLSCAASGFDFSSASIHWVRQAPGKGLEWVASISPYYGSTYYADSVKGRFTISADTSKNTAYLQMNSLRAEDTAVYYCARYYEWYKYDLYLGSLGFDYWGQGTLVTVSS
VL: DIQMTQSPSSLSASVGDRVTITCRASQSVSSAVAWYQQKPGKAPKLLIYSASSLYSGVPSRFSGSRSGTDFTLTISSLQPEDFATYYCQQGGYSLITFGQGTKVEIK
For the molecule B1, the Kd (as a rule, the free concentration of one partner at which half of the binding sites on the other are occupied at equilibrium, for simple one-to-one binding) in assay [1] worked out at 230 nM.

B2: Ab0947 (antibody, V domains shown)
VH: EVQLVESGGGLVQPGGSLRLSCAASGFDFSSYSIHWVRQAPGKGLEWVASISPYYGSTYYADSVKGRFTISADTSKNTAYLQMNSLRAEDTAVYYCARYYEWYKYDLYLGSLGFAYWGQGTLVTVSS
VL: DIQMTQSPSSLSASVGDRVTITCRASQSVSSAVAWYQQKPGKAPKLLIYSASSLYSGVPSRFSGSRSGTDFTLTISSLQPEDFATYYCQQGGYSLITFGQGTKVEIK
In assay [1], B2 showed a Kd of 52 nM.

B3: Ab0946 (antibody, V domains shown)
VH: EVQLVESGGGLVQPGGSLRLSCAASGFDFSSYSIHWVRQAPGKGLEWVASISPYYGSTYYADSVKGRFTISADTSKNTAYLQMNSLRAEDTAVYYCARYYEWYKYDLYLGSLAFDYWGQGTLVTVSS
VL: DIQMTQSPSSLSASVGDRVTITCRASQSVSSAVAWYQQKPGKAPKLLIYSASSLYSGVPSRFSGSRSGTDFTLTISSLQPEDFATYYCQQGGYSLITFGQGTKVEIK
B3: the Kd in assay [1] came to 50 nM.

B4: Ab0940 (antibody, V domains shown)
VH: EVQLVESGGGLVQPGGSLRLSCAASGFDFSSYSIHWVRQAPGKGLEWVASISPYYASTYYADSVKGRFTISADTSKNTAYLQMNSLRAEDTAVYYCARYYEWYKYDLYLGSLGFDYWGQGTLVTVSS
VL: DIQMTQSPSSLSASVGDRVTITCRASQSVSSAVAWYQQKPGKAPKLLIYSASSLYSGVPSRFSGSRSGTDFTLTISSLQPEDFATYYCQQGGYSLITFGQGTKVEIK
As for B4, the Kd in assay [1] stood at 10 nM.

B5: Ab0939 (antibody, V domains shown)
VH: EVQLVESGGGLVQPGGSLRLSCAASGFDFSSYSIHWVRQAPGKGLEWVASISAYYGSTYYADSVKGRFTISADTSKNTAYLQMNSLRAEDTAVYYCARYYEWYKYDLYLGSLGFDYWGQGTLVTVSS
VL: DIQMTQSPSSLSASVGDRVTITCRASQSVSSAVAWYQQKPGKAPKLLIYSASSLYSGVPSRFSGSRSGTDFTLTISSLQPEDFATYYCQQGGYSLITFGQGTKVEIK
In the case of B5, the Kd in assay [1] was found to be 3.7 nM.

B6: Ab0936 (antibody, V domains shown)
VH: EVQLVESGGGLVQPGGSLRLSCAASGFDFSSYSIHWVRQAPGKGLEWVAAISPYYGSTYYADSVKGRFTISADTSKNTAYLQMNSLRAEDTAVYYCARYYEWYKYDLYLGSLGFDYWGQGTLVTVSS
VL: DIQMTQSPSSLSASVGDRVTITCRASQSVSSAVAWYQQKPGKAPKLLIYSASSLYSGVPSRFSGSRSGTDFTLTISSLQPEDFATYYCQQGGYSLITFGQGTKVEIK
Regarding B6, the Kd in assay [1] is under 1 nM.

B7: Ab0942 (antibody, V domains shown)
VH: EVQLVESGGGLVQPGGSLRLSCAASGFDFSSYSIHWVRQAPGKGLEWVASISPYYGSTYYADSVKGRFTISADTSKNTAYLQMNSLRAEDTAVYYCARYYAWYKYDLYLGSLGFDYWGQGTLVTVSS
VL: DIQMTQSPSSLSASVGDRVTITCRASQSVSSAVAWYQQKPGKAPKLLIYSASSLYSGVPSRFSGSRSGTDFTLTISSLQPEDFATYYCQQGGYSLITFGQGTKVEIK
Take B7: the Kd in assay [1] was 210 nM.

B8: Ab0941 (antibody, V domains shown)
VH: EVQLVESGGGLVQPGGSLRLSCAASGFDFSSYSIHWVRQAPGKGLEWVASISPYYGATYYADSVKGRFTISADTSKNTAYLQMNSLRAEDTAVYYCARYYEWYKYDLYLGSLGFDYWGQGTLVTVSS
VL: DIQMTQSPSSLSASVGDRVTITCRASQSVSSAVAWYQQKPGKAPKLLIYSASSLYSGVPSRFSGSRSGTDFTLTISSLQPEDFATYYCQQGGYSLITFGQGTKVEIK
B8 yielded a Kd in assay [1] of 3.7 nM.

B9: Ab0943 (antibody, V domains shown)
VH: EVQLVESGGGLVQPGGSLRLSCAASGFDFSSYSIHWVRQAPGKGLEWVASISPYYGSTYYADSVKGRFTISADTSKNTAYLQMNSLRAEDTAVYYCARYYEWYAYDLYLGSLGFDYWGQGTLVTVSS
VL: DIQMTQSPSSLSASVGDRVTITCRASQSVSSAVAWYQQKPGKAPKLLIYSASSLYSGVPSRFSGSRSGTDFTLTISSLQPEDFATYYCQQGGYSLITFGQGTKVEIK
B9 gave a Kd in assay [1] of 130 nM.

B10: Ab0944 (antibody, V domains shown)
VH: EVQLVESGGGLVQPGGSLRLSCAASGFDFSSYSIHWVRQAPGKGLEWVASISPYYGSTYYADSVKGRFTISADTSKNTAYLQMNSLRAEDTAVYYCARYYEWYKYALYLGSLGFDYWGQGTLVTVSS
VL: DIQMTQSPSSLSASVGDRVTITCRASQSVSSAVAWYQQKPGKAPKLLIYSASSLYSGVPSRFSGSRSGTDFTLTISSLQPEDFATYYCQQGGYSLITFGQGTKVEIK
In turn, B10 yielded a Kd in assay [1] of 7.1 nM.

B11: Ab0938 (antibody, V domains shown)
VH: EVQLVESGGGLVQPGGSLRLSCAASGFDFSSYSIHWVRQAPGKGLEWVASIAPYYGSTYYADSVKGRFTISADTSKNTAYLQMNSLRAEDTAVYYCARYYEWYKYDLYLGSLGFDYWGQGTLVTVSS
VL: DIQMTQSPSSLSASVGDRVTITCRASQSVSSAVAWYQQKPGKAPKLLIYSASSLYSGVPSRFSGSRSGTDFTLTISSLQPEDFATYYCQQGGYSLITFGQGTKVEIK
In turn, B11 had a Kd in assay [1] of 310 nM.

B12: Ab0948 (antibody, V domains shown)
VH: EVQLVESGGGLVQPGGSLRLSCAASGFDFSSYSIHWVRQAPGKGLEWVASISPYYGSTYYADSVKGRFTISADTSKNTAYLQMNSLRAEDTAVYYCARYYEWYKYDLYLGSLGFDAWGQGTLVTVSS
VL: DIQMTQSPSSLSASVGDRVTITCRASQSVSSAVAWYQQKPGKAPKLLIYSASSLYSGVPSRFSGSRSGTDFTLTISSLQPEDFATYYCQQGGYSLITFGQGTKVEIK
In assay [1], B12 showed a dissociation constant (Kd) of 7.3 nM.

B13: Ab1011 (antibody, V domains shown)
VH: EVQLVESGGGLVQPGGSLRLSCAASGFTFSNYWMNWVRQAPGKGLEWVAQIRVKSENFATHYADSVKGRFTISRDDSKSTVYLQMNSLRAEDTAVYYCTRYDGFSWGQGTLVTVSS
VL: DIQMTQSPSSLSASVGDRVTITCSASSSVSSGNFHWYQQKPGKAPKLLIYRTSNLASGVPSRFSGSGSGTDYTLTISSLQPEDFATYYCQQWSGYPYTFGQGTKVEIKR
In the case of B13, in assay [2], the Kd was 9.9 nM.

B14: Ab1017 (antibody, V domains shown)
VH: EVQLVESGGGLVQPGGSLRLSCAASGFTFSNYWMSWVRQAPGKGLEWVAQIRVKSENFATHYADSVKGRFTISRDDSKSTVYLQMNSLRAEDTAVYYCTLYDGFSWGQGTLVTVSS
VL: DIQMTQSPSSLSASVGDRVTITCSASSSVSSGNFHWYQQKPGKAPKLLIYRTSNLASGVPSRFSGSGSGTDYTLTISSLQPEDFATYYCQQWSGYPYTFGQGTKVEIK
With B14, the equilibrium dissociation constant (Kd) in assay [2] came out at 4.5 nM; in assay [3], 7.6 nM.

B15: Ab1012 (antibody, V domains shown)
VH: EVQLVESGGGLVQPGGSLRLSCAASGFTFSSYWMNWVRQAPGKGLEWVAQIRVKSENFATHYADSVKGRFTISRDDSKSTVYLQMNSLRAEDTAVYYCTLYDGFSWGQGTLVTVSS
VL: DIQMTQSPSSLSASVGDRVTITCSASSSVSSGNFHWYQQKPGKAPKLLIYRTSNLASGVPSRFSGSGSGTDYTLTISSLQPEDFATYYCQQWSGYPYTFGQGTKVEIK
Regarding B15, the Kd in assay [2] is 6.2 nM; in assay [3], 9.7 nM.

B16: Ab1023 (antibody, V domains shown)
VH: EVQLVESGGGLVQPGGSLRLSCAASGFTFSNYWMNWVRQAPGKGLEWVAQIRVKYENFATHYADSVKGRFTISRDDSKSTVYLQMNSLRAEDTAVYYCTLYDGFSWGQGTLVTVSS
VL: DIQMTQSPSSLSASVGDRVTITCSASSSVSSGNFHWYQQKPGKAPKLLIYRTSNLASGVPSRFSGSGSGTDYTLTISSLQPEDFATYYCQQWSGYPYTFGQGTKVEIK
Regarding B16, the Kd was found to be 0.9 nM in assay [2] and 2 nM in assay [3].

B17: Ab1021 (antibody, V domains shown)
VH: EVQLVESGGGLVQPGGSLRLSCAASGFTFSNYWMNWVRQSPGKGLEWVAQIRVKSENFATHYADSVKGRFTISRDDSKSTVYLQMNSLRAEDTAVYYCTLYDGFSWGQGTLVTVSS
VL: DIQMTQSPSSLSASVGDRVTITCSASSSVSSGNFHWYQQKPGKAPKLLIYRTSNLASGVPSRFSGSGSGTDYTLTISSLQPEDFATYYCQQWSGYPYTFGQGTKVEIK
On to B17, for which the Kd in assay [2] amounted to 2.3 nM; in assay [3] it was 3.1 nM.

B18: Ab1016 (antibody, V domains shown)
VH: EVQLVESGGGLVQPGGSLRLSCAASGFTFSNYYMNWVRQAPGKGLEWVAQIRVKSENFATHYADSVKGRFTISRDDSKSTVYLQMNSLRAEDTAVYYCTLYDGFSWGQGTLVTVSS
VL: DIQMTQSPSSLSASVGDRVTITCSASSSVSSGNFHWYQQKPGKAPKLLIYRTSNLASGVPSRFSGSGSGTDYTLTISSLQPEDFATYYCQQWSGYPYTFGQGTKVEIK
Take B18: the Kd in assay [2] was 7.7 nM; in assay [3] it was 7.2 nM.

B19: Ab1066 (antibody, V domains shown)
VH: EVQLVESGGGLVQPGGSLRLSCAASGFTFSNYWMNWVRQAPGKGLEWVAQIRVKSENFATHYADSVKGRFTISRDDSKSTVYLQMNSLRAEDTAVYYCTLYDAFSWGQGTLVTVSS
VL: DIQMTQSPSSLSASVGDRVTITCSASSSVSSGNFHWYQQKPGKAPKLLIYRTSNLASGVPSRFSGSGSGTDYTLTISSLQPEDFATYYCQQASGYPYTFGQGTKVEIK
As to B19, the Kd was found to be 3 nM in assay [4] and 5.7 nM in assay [5].
